In the supplement of paper PMC12764529:
± gives the half width of the 95% confidence interval.

What was measured:
[1] = folding stability dG unfold (combined trypsin and chymotrypsin); higher = more stable
How it was run: (§1)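 Designed mini-proteins (under 80 residues, no cysteine) in a PA-tagged cDNA display construct were digested with trypsin and chymotrypsin. Each protease was used at 11 concentrations (threefold dilutions) plus a no-protease condition, followed by sequencing. K50 was inferred by Bayesian fitting of sequencing counts, and unfolding free energy was derived against a sequence-predicted unfolded-state K50 and a shared folded-state K50, per protease or combined. Only designs with AlphaFold2 dimer inter-PAE above 15 were kept.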

[2] = folding stability dG unfold from trypsin proteolysis; higher = more stable
How it was run: as §1

[3] = folding stability dG unfold from chymotrypsin proteolysis; higher = more stable
How it was run: as §1

Q: Which “folding stability dG unfold” value [1] does the source give for “SAGGSAGGEKKGKPPVKIVIKVRDVDTGETRTITLTIEPDMTVEEIRELLRALLPPGAEVEIVPSAGGSAGG [r6_440_TrROS_Hall]” here?
A: The value was 12.9 ± 0.669 kJ/mol.

Q: And the “folding stability dG unfold” value [2]?
A: Its value is 6.69 ± 0.218 kJ/mol.

Q: What about the “folding stability dG unfold” value [3] of the same sequence?
A: The value was 14.4 ± 0.628 kJ/mol.

Q: Which results are given for “SAGGSAGGMLTTQETSSDPATNLTTTTTTLTEKDASGNLVPLETTVTTTTSPPAPSTTAPTYAASAGGSAGG [r6_901_JUSTAS]”?
A: folding stability dG unfold [1]: 5.39 ± 0.372 kJ/mol; folding stability dG unfold [2]: 7.92 ± 0.255 kJ/mol; folding stability dG unfold [3]: 1.81 ± 0.1 kJ/mol

Q: Which results are given for “SAGGSAGGKKYEVVSTIKDPATGETITVIKKDGKLIITITNKNGETKTIEITVKPGETITITAPSAGGSAGG [r6_379_TrROS_Hall]”?
A: folding stability dG unfold [1]: 7.29 ± 0.238 kJ/mol; folding stability dG unfold [2]: 8.07 ± 0.322 kJ/mol; folding stability dG unfold [3]: 6.56 ± 0.109 kJ/mol

Q: Which “folding stability dG unfold” value [1] does the source give for “SAGGSAGMVSLTTTTTPVETRTLPDGTVVTLEKTELPDDTVVLTTTTTDPATGEVTTETTTVSLAGSAGGSA [r15_401_JUSTAS]” here?
A: The value was 3.7 ± 0.46 kJ/mol.

Q: What about the “folding stability dG unfold” value [2] of the same sequence?
A: The value was 1.71 ± 0.109 kJ/mol.

Q: And the “folding stability dG unfold” value [3]?
A: Its value is 4.63 ± 0.092 kJ/mol.

Q: With “LKITLPDGAEITEITSVSVLPNGTIKITVKVRNPATGETTTVTLTITLKPAPPPEVTIVRDAETGELKLVKS [r1_411_TrROS_Hall]” as the sequence, how does the “folding stability dG unfold” value [1] read?
A: Its value is 10.4 ± 0.962 kJ/mol.

Q: And the “folding stability dG unfold” value [2]?
A: The value was 11 ± 0.418 kJ/mol.

Q: And the “folding stability dG unfold” value [3]?
A: Its value is 8.93 ± 0.197 kJ/mol.

Q: Which results are given for “SAGGMTTTVELELEDPVNLGVPVRVEATVTYEKDPNGNPVAKAEITTTYPDGKEEKTTIPVSELKGLGSAGG [r13_787_JUSTAS]”?
A: folding stability dG unfold [1]: -0.016 ± 0.711 kJ/mol; folding stability dG unfold [2]: 1.23 ± 0.247 kJ/mol; folding stability dG unfold [3]: -2.52 ± 0.544 kJ/mol

Q: Which results are given for “SAGGSAGGSGWYFHFEVSIWVMEFKYPGPDGKTMTMWFIMIEIKIEIVPPPPITPEDAAKMNGSAGGSAGGS [r12_1060_TrROS]”?
A: folding stability dG unfold [1]: 15.7 ± 0.669 kJ/mol; folding stability dG unfold [2]: 11.1 ± 0.251 kJ/mol; folding stability dG unfold [3]: 17.7 ± 0.364 kJ/mol

Q: For “SAGGSAGGSEITLVFKTKEEAEKAAEELAKKYNVEVTVEENEETGLYVVTIKLPENGKEITILSAGGSAGGS [r12_635_TrROS_Hall]”, which “folding stability dG unfold” value [1] is on record?
A: Its value is 8.2 ± 0.795 kJ/mol.

Q: What about the “folding stability dG unfold” value [2] of the same sequence?
A: Its value is 7.03 ± 0.268 kJ/mol.

Q: And the “folding stability dG unfold” value [3]?
A: The value was 8.5 ± 0.247 kJ/mol.

Q: With “SAGGSAGGSAGMVEVYSEPDGTVIVKETVPGKVVITVLEKVPGGPGLNPVTTTVVPPGLLSAGGSAGGSAGG [r11_844_JUSTAS]” as the sequence, how does the “folding stability dG unfold” value [1] read?
A: The value was 4.64 ± 0.18 kJ/mol.

Q: And the “folding stability dG unfold” value [2]?
A: The value was 5.87 ± 0.155 kJ/mol.

Q: What about the “folding stability dG unfold” value [3] of the same sequence?
A: Its value is 3.29 ± 0.243 kJ/mol.

Q: What does the source list for “SAGKPIIVKVSVINEDGEEEEIAEFPIPPDLLKGSIEVGDGFIIAPDGEGPTFTAIIGDKPVKIEIEGSAGG [r19_408_TrMRF]”?
A: folding stability dG unfold [1]: 5.33 ± 0.544 kJ/mol; folding stability dG unfold [2]: 2.75 ± 0.243 kJ/mol; folding stability dG unfold [3]: 6.34 ± 0.544 kJ/mol

Q: Which “folding stability dG unfold” value [1] does the source give for “SAGLRLVLELELEVPPDVPPERVREAVEREVRDILGRLGIPLPPDARIVVEEVERRGRRVRFRVEVDFPSAG [r14_735_TrMRF]” here?
A: Its value is 20.9 ± 0.879 kJ/mol.

Q: And the “folding stability dG unfold” value [2]?
A: Its value is 21.5 ± 1.34 kJ/mol.

Q: And the “folding stability dG unfold” value [3]?
A: The value was 21.2 ± 0.753 kJ/mol.

Q: Which “folding stability dG unfold” value [1] does the source give for “SPLKPGDVYTEPGGPLLRVEKVTLSEDPNKFPKKLEIELVPIPPPTPTLEEYTLPNGERRTLVLFEFDGPSA [r9_914_JUSTAS]” here?
A: Its value is -0.907 ± 1.76 kJ/mol.

Q: What about the “folding stability dG unfold” value [2] of the same sequence?
A: Its value is -1.29 ± 1.3 kJ/mol.

Q: What about the “folding stability dG unfold” value [3] of the same sequence?
A: Its value is -4.89e-05 ± 2.09 kJ/mol.

Q: With “SAGGSAGGSKQILKKLGLPPGKEVQIMMTPNDMNELRDLPGIKSIKMEPRPDGYYQHSIRIDNSAGGSAGGS [r12_750_TrROS]” as the sequence, how does the “folding stability dG unfold” value [1] read?
A: The value was -2.44 ± 2.05 kJ/mol.

Q: And the “folding stability dG unfold” value [2]?
A: The value was -5.47 ± 2.47 kJ/mol.

Q: And the “folding stability dG unfold” value [3]?
A: The value was -1.61 ± 1.38 kJ/mol.

Q: Which “folding stability dG unfold” value [1] does the source give for “SAGGSAGGSAGGEAKIKLEVEETPGGLVIRAEVEVDGKLYEVELRIKGDEIVEVKIKPLDSAGGSAGGSAGG [r7_187_TrROS_Hall]” here?
A: The value was 10.5 ± 0.711 kJ/mol.

Q: What about the “folding stability dG unfold” value [2] of the same sequence?
A: Its value is 8.91 ± 0.406 kJ/mol.

Q: What about the “folding stability dG unfold” value [3] of the same sequence?
A: The value was 11 ± 0.837 kJ/mol.

Q: Which results are given for “SAGIKIEVEPSPGNGWYRIRIENPDLRKKLNEKFPDLKEITFPFKNPEDMPWEEMREHAIDQIKEFLPSAGG [r19_298_TrROS]”?
A: folding stability dG unfold [1]: 2.68 ± 1 kJ/mol; folding stability dG unfold [2]: -0.824 ± 1.21 kJ/mol; folding stability dG unfold [3]: 4.3 ± 0.628 kJ/mol

Q: For “SAGGKTVIIEGMSLEELLELIKNAKPGDTITITLKVKVEEYKYENGKLVEKKEFEKTLTLTLKIEEKESAGG [r13_632_TrROS_Hall]”, which “folding stability dG unfold” value [1] is on record?
A: Its value is 17.1 ± 1.38 kJ/mol.

Q: What about the “folding stability dG unfold” value [2] of the same sequence?
A: The value was 10.8 ± 1.17 kJ/mol.

Q: What about the “folding stability dG unfold” value [3] of the same sequence?
A: The value was 17.9 ± 0.795 kJ/mol.

Q: For “SAGGVDPSKLTPLSTREVPVDDRRLLVTTYLTPDGKPLYTVTVLDAEGRPLGSELVPPEKVSADGRLESAGG [r13_447_JUSTAS]”, which “folding stability dG unfold” value [1] is on record?
A: The value was 1.4 ± 0.276 kJ/mol.

Q: What about the “folding stability dG unfold” value [2] of the same sequence?
A: The value was -0.408 ± 0.418 kJ/mol.

Q: And the “folding stability dG unfold” value [3]?
A: Its value is 2.12 ± 0.46 kJ/mol.
